Earlier results in publication PMC9880166.
Where two headings read alike, the source gives them in different places.

How the values were obtained:
[1] = biological target: prolactin receptor (Homo sapiens) (UniProt P16471)
[2] = biological target: prolactin receptor (Homo sapiens) (UniProt P16471); assay: SPR

Chain of UniProt P16471 (P16471 25-234): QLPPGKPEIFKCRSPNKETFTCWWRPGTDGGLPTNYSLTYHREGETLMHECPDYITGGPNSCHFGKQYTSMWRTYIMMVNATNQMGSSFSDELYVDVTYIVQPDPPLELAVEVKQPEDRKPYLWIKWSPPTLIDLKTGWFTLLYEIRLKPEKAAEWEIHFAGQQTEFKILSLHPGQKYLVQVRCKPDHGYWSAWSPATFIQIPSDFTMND
Chain of prolactin (P01236 29-227): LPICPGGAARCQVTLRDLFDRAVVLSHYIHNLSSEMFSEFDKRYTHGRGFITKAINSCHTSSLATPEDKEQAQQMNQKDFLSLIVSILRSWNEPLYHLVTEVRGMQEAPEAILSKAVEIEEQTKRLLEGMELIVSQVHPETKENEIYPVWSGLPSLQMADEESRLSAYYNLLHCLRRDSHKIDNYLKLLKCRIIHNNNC

For prolactin (from UniProt P01236), the Kd [1] is listed as 29.9 nM and the Kd [2] is listed as 23 nM.
